# Results: US9771395B2, “Enhanced influenza hemagglutinin binders” (UNIVERSITY OF WASHINGTON, priority 2014, dated 2017)
# B1: HB36.6: HA stem binding protein, variant of HB36.5 with nine substitutions (SEQ ID NO: 3); FLAG-tagged in the studies (protein)
# chain: SNAMDGQQLNRLLLENIGAWDPFGLGKDAYTYQAAEVLKAVYETNRAFDLAMRIHWIYNFAFKRRIPFARTQKLARRLLELKQAASSPLP
# modifications: FLAG tag; (1)..(5) optionally absent; (86)..(90) optionally absent
# notes: FLAG-tagged in the studies
# Key:
# [1] = tested on: CA09 virus; parameters: species or system BALB/c mice; conditions: mouse, in vivo
# [2] = molecular target: Hemagglutinin (HA) of pandemic 2009 California H1N1 (Influenza A virus, UniProt C3W5S1)
# [3] = tested on: human (H1N1) and avian (H5N1) influenza viruses; experiment: microbe, parasite or virus in culture; type: cell-based, Influenza virus
# [4] = tested on: H2 HA; type: binding, Influenza virus
# [5] = mouse, in vivo
# [6] = tested on: CA09 virus; experiment: Post-exposure (therapeutic) administration after CA09 challenge in BALB/c mice; type: in vivo; conditions: for protection from lethality: 10 MLD50 CA09
# Method: All animal experiments used in this study were approved by the University of Washington Institutional Animal Care and Use Committee. […] […] In a therapeutic setting, mice received the protein binder 0 (2 hours post-infection), 1, 2, 3, or 4 days post infection. The mice were monitored daily for weight loss and survival until 14 days post-infection. Animals that lost more than 30% of their initial body weight were euthanized in accordance with our animal protocol. The SCID (NOD SCID gamma, strain NOD.Cg-Prkdcscid Il2rgtm1Wjl/SzJ) mice and the MyD88−/−(strain B6.129P2(SJL)-Myd88tm1.1Defr/J) mice were purchased from Jackson Laboratory.
# [7] = tested on: Group I Hemagglutinin (HA) subtypes; type: binding, Influenza virus
# [8] = ELISA for serum binding antibodies against HB36.6 after repeat dosing; type: in vivo, mice; conditions: 3.0 mg/kg IN doses two weeks apart
# Method: Plates were blocked with 5% nonfat milk powder in PBS for 1 h at room temperature, and then washed three times with wash buffer (PBS-T; phosphate-buffered saline containing 0.05% Tween 20). Two-fold serial dilutions of samples were added to the wells and plates were incubated for 1 hr at room temperature. Following three washes with PBS-T, plates were incubated with horseradish-peroxidase conjugated goat anti-mouse IgG (1/3,000 dilution) secondary antibodies (Thermo Scientific Pierce) for 1 h at room temperature. After five washes with PBS-T, TMB substrate (KPL) was added to the wells for 30 min at room temperature.
# [9] = Bio-Plex inflammatory cytokines in lung homogenates after protein administration (no infection); type: in vivo, BALB/c mice; conditions: single IN dose 6.0 mg/kg
# Method: The concentrations of cytokines in lung tissue were measured. […] Lungs were thawed, weighed and lysed using the Bio-Plex® Cell Lysis Kit (Bio-Rad, Hercules, Calif.). The levels of interleukin (IL)-6, IL-10. IL-12(p70), interferon (IFN)-γ, and tumor necrosis factor (TNF)-α in the lysate were measured using a Bio-Plex) multiplex bead array kit (Bio-Rad, Hercules, Calif.). The Bio-Plex® assay was performed in accordance with the manufacturer's instructions.
# [10] = tested on: CA09 virus; experiment: Bio-Plex inflammatory cytokines in lung homogenates after CA09 challenge; type: in vivo, BALB/c mice; conditions: 6.0 mg/kg IN 24 hrs before or after CA09; day 2 p.i.; P≦0.00119
# Method: The concentrations of cytokines in lung tissue were measured. On days 2 and 4 post-infection, 8 mice per group were sacrificed and whole lung tissue was collected and immediately frozen. Lungs were thawed, weighed and lysed using the Bio-Plex® Cell Lysis Kit (Bio-Rad, Hercules, Calif.). The levels of interleukin (IL)-6, IL-10. IL-12(p70), interferon (IFN)-γ, and tumor necrosis factor (TNF)-α in the lysate were measured using a Bio-Plex) multiplex bead array kit (Bio-Rad, Hercules, Calif.). The Bio-Plex® assay was performed in accordance with the manufacturer's instructions.
# [11] = tested on: H5 HA; type: binding, Influenza virus
# [12] = tested on: A/California/07/2009 (CA09) influenza virus; parameters: species or system ferrets; conditions: in vivo
# [13] = tested on: CA09 virus; experiment: Lung immunohistochemistry for influenza nucleoprotein (NP) after CA09 challenge; type: in vivo, BALB/c mice
# Method: During in vivo challenge experiments, lungs were removed from mice and immersed in 10% neutral buffered formalin. Following fixation, tissues were removed from formalin and placed in paraffin. Immunohistochemical staining was performed on the Leica Bond Automated Immunostainer. Sections were deparaffinized in Leica Bond Dewax Solution (Leica Cat No. AR922) and rehydrated through 100% EtOH. After antigen retrieval with EDTA buffer pH 9.0 (Lieca Bond Epitope Retrieval Solution 2, Cat No AR9640) at 100° C. for 20 minutes and blocking endogenous peroxidase activity with 3.0% H2O2 for 5 minutes and blocking with 10% Normal Donkey Serum in TBS for 20 minutes the sections were incubated with Goat anti Influenza A Virus, (Meridian Life Science Inc. Cat No. B65141G) at 1:2000 or Normal Goat IgG, isotype control. (Invitrogen Cat No. 02-6202) at (1:5000 dilution) both in Bond Primary Antibody Diluent (Leica Cat No. AR9352) for 30 minutes at room temperature. Sections were then incubated with Rabbit anti Goat IgG (Jackson ImmunoResearch Cat. No. 305-005-045) 1:1500+5% Normal Donkey Serum for 8 minutes at RT followed by incubation with Goat anti Rabbit Poly-HRP polymer secondary detection (Leica Cat No DS9800) for 8 minutes at room temperature. Sections were then incubated with Leica Bond Mixed Refine DAB substrate detection for 10 minutes at room temperature. (Leica Cat No DS9800). […]
molecule,measurement,setting,value
B1,reduction in mean viral titers in nasal washes vs untreated controls,[1],1-3 log-fold
same,Kd stronger than HB36.5,[2],roughly 6 fold
same,Kd tighter than any known de novo binder,[2],5 fold
same,Kd,[2]; read-out: Kd against pandemic 2009 California H1N1,3.1 nM
same,50% effective concentration (EC50) range,[3],0.18 to 12.0 µg/mL
same,affinity increase over HB36.5,[4],greater than 40 fold
same,detection of protein in lung tissue,[5],readily detected throughout the lung tissue
same,protection from lethality,[6]; 3.0 mg/kg IN daily for 4 days (days +1-4 p.i.),100%
same,protection from lethality,[6]; single IN dose 3.0 mg/kg 2 hours p.i.,100%
same,protection from lethality,[6]; single IN dose 3.0 mg/kg +1 day p.i.,60%
same,rate of survival,"[6]; single IN dose 10 mg/kg on day +1 p.i., 3 MLD50 CA09",70%
same,effect of a single dose on survivors,"[6]; single IN dose 1.0-10 mg/kg on day +1 p.i., CA09, dose-responsive",increase in the number of survivors
same,affinity compared with HB36.5,[7],higher affinity than HB36.5
same,cross-reactivity against Group I HA subtypes,[7],broadly cross-reactive
same,off-rates (dissociation),[7],did not show well-defined off-rates
same,serum binding antibodies against HB36.6,[8]; after the 1st and 2nd dose,No antibodies against HB36.6 were detected
same,animals with low levels of antibody responses,[8]; by 3rd dose,4 of the 10
same,cytokine levels by 48 hrs,[9],dropped to pre-administration levels
same,cytokine levels compared with 1u84,[9],significantly lower than levels induced by 1u84
same,"inflammatory cytokine response in lung (IL-6, IL-10, IL-12p70, TNF-α, IFN-γ)",[10],several cytokines were significantly lower than in the controls
same,affinity increase over HB36.5,[11],> 10 fold
same,protection against influenza challenge in ferrets,[12],affords prophylactic protection
same,viral replication in the lungs vs untreated controls,"[13]; 6.0 mg/kg IN 1 day before or post-infection, day 2 and day 4 p.i.",significantly less viral replication
same,NP positive (infected) cells in lung tissue vs controls,"[13]; 6.0 mg/kg IN as therapeutic, day 4, P≦0.0263",significantly lower number of infected cells
